Measured values published in the Human Domainome abundance scans (Beltran et al. 2025).

B1: Syntaxin-binding protein 4, residues 493 to 538; numbered along this chain, Q6ZWJ1 (parent)
chain: LDMDCLPYGWEEAYTADGIKYFINHVTQTTSWIHPVMSVLNLSRSE

Variants of: B1
Assay: abundance fitness (aPCA) (normalised: wild type 0, dead -1); higher = more abundant; growth selection in yeast, the domain comes from the species named
Conditions: Homo sapiens

Abundance fitness of substitutions, site by site:
V36: F -0.444, N 0.571, L -0.035, R 0.712, Y -0.254, S 0.659, G 0.528, W -0.424, E 0.44, K 0.746, T 0.526, P -0.597, A 0.59, D 0.168, Q 0.391, C 0.585, I -0.598, H 0.224
N41: F -1.02, M -0.403, H -0.681, W -0.197, R -0.493, Q -0.514, V -0.694, A -0.313, G -0.215, K -0.635, P -0.38, T -0.23, S -0.227, C -0.236, D 0.174, L -0.684, E -0.227
H34: S -0.443, M -0.74, F -1.14, C -0.439, E -0.826, Y -0.689, K -0.686, G -0.822, N -0.141, V -1, T -0.877, I -0.724, Q -0.555, R -0.488, W -1.11, P -0.181, D -0.54
V39: S -0.079, D 0.466, A -0.135, N 0.168, L -0.386, H -0.263, P 1.03, Q 0.223, G 0.352, T 0.04, M -0.174, Y -0.851, C -0.134, E 0.144, F 0.072, I -0.599, W -0.55, K -0.205, R -0.083
M37: C 0.056, G 0.059, H -0.15, Y -0.374, Q 0.397, P -0.603, N 0.404, T 0.146, V -0.226, L -0.085, A 0.219, F -0.292
